Consider six substances from patent US9127130B2, “Polylysine dendrimer contrast agent” (STARPHARMA PTY LTD., priority 2006, dated 2015).

Like-named read-outs stand apart in the source and are kept apart here.

For data set [1] the following is noted: cited from earlier work.
The next data set relates to human thrombi. Put plainly: MRI of in vitro formed human plasma thrombi stained with Gadolinium loaded antibody-dendrimer constructs. The data set is classed as cell-based. As to the method:
Antibody-Dendrimer constructs (1.5 nmol) were loaded with Gadolinium by adding 64 nmol GdCl3.6H2O in PBS (0.1M, pH 7.4) overnight at room temperature under shaking. Excess Gadolinium was removed by dialysis (10,000 Dalton dialysis membrane, 12 h against 500 mL PBS with 3 buffer changes every 4 h).
To form human thrombi in vitro 1 mL platelet rich plasma (citrated blood spun down at 1000 rpm for 10 min) was mixed with 100 μL ADP, 88 μL Actin, 25 μL 1 M CaCl2 in a 1.5 mL reaction tube. Samples were incubated for 12 min at 37° C. in a water bath, incubated with antibody-dendrimer fusion product for another 30 min at 37° C. under continuous rotation. Thrombi were washed 3 times with 2 mL PBS for 10 min and fixed in formalin solution (1%) before imaging.
MRI of thrombi was performed on a 4.7 Tesla animal MRI scanner (Biospin Bruker). T1 weighted images with TE/TR 15 ms/350 ms were taken with a resolution of 512×512 μm (FOV 7 cm, average 4). 10 slices of 1 mm thickness were taken.

On to “α-methoxy-ω-{N-(2-cholesteryloxy-[1,3]dioxolan-4-yl)methylamido}-polyethyleneglycol110”, for which the “stability of the conjugate” value in data set [1] (pH 4) is on record as “moderately less stable”; in data set [1] (pH 5), “very stable”.

As for “MAL-(CH2)2CONH-PEG1100-CO-NEOEOEN[Su(NPN)2][Lys]8[Su-p-Bn-DTPA]16 [Example 7v]”, the “MRI signal, control experiment” value in the data set on human thrombi (non reduced C-terminal cysteine antibody incubated with dendrimer) and in the data set with human thrombi (non-modified antibody (no Traut's reagent) incubated with dendrimer) was “did not show any MRI signal” throughout.

For “[TFA.NH2(CH2)5NHSu]NEOEOEN[Su(NPN)2]Lys8[Su-p-Bn-DTPA]16 [Example 9iv]”, in the data set with human thrombi (antibody incubated with dendrimer but without the Transglutaminase coupling enzyme), the “MRI signal, control experiment” value is “did not show any MRI signal”.

For “α-methoxy-ω-{N-(2-octadecyloxy-[1,3]dioxolan-4-yl)methylamido}-polyethyleneglycol110”, the “stability of the conjugate” value in data set [1] (pH 4) and in data set [1] (pH 5) was “good stability” in each case.

As for “α-methoxy-ω-{N-(2-methyl-s-octadecyloxy-[1,3]dioxan-5-yl)-amido}-polyethyleneglycol110”, the “stability of the conjugate” value in data set [1] (acidic conditions (pH 4-6)) is “not stable”.

Turning to “α-methoxy-ω-{N-2-(3-hydroxypropyl-cholesterylcarbarnate)-2-methyl-[1,3]dioxan-5-yl-amido}-polyethyleneglycol110”, the “stability of the conjugate” value in data set [1] (acidic conditions (pH 4-6)) is recorded as “not stable”.
